Measurements: patent US20260078342A1

Target: CD16 (FcγRIIIa/CD16a), high affinity variant with valine at amino acid 176, expressed on haNK003 cells (human) (UniProt P08637)
Experiment: cell-based or functional assay

UniProt P08637, sequence (P08637 other isoform, or with tags, fused parts or gaps mutant limits assumed): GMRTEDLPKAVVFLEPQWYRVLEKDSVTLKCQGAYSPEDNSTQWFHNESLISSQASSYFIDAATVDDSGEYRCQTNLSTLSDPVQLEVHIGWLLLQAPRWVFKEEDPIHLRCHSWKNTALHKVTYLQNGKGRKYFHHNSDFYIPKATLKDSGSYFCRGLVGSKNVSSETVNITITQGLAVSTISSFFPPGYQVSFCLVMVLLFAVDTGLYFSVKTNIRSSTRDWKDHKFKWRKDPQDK

- ADCC assay (specific lysis), haNK003 at 1:1 E:T Ratio with Rituxan (3.3 µg/mL) vs DOHH2: 52.8%
Substance: Rituximab (antibody)
